The labels stand for the following.
B1: glmS ribozyme (parent)
chain: AUAAAAGCGCCAGAACUACAGAAAUGUAGUUGACGAGGAGGAGGUUUAUCGAAUUUUCGGCGGAUGCCUCCAAA

Common to all, as to conditions: with glucosamine-6-phosphate
The variants in data set [1] derive from B1. The experiment in a line: self-cleavage kobs at 160 uM GlcN6P; higher = faster cleavage; RNA array. Summed up: (§1)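 Glucosamine-6-phosphate (40 μM to 10 mM) in HEPES/KCl/Mg(OAc)2 buffer was flowed over sequenced MiSeq chips, and tiles were imaged over ~14 h. Barcoded ribozyme variants there had been transcribed in situ by E. coli RNA polymerase and were tracked through a hybridised Cy3 probe at 37 °C. One- or two-exponential decay fits to per-tile medians, normalised to baseline and to non-cleaving reference variants, gave kobs. kcat and KM came from weighted Michaelis–Menten fits across concentrations.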

The variants in data set [2] derive from B1. The experiment in a line: self-cleavage kobs at 640 uM GlcN6P; higher = faster cleavage; RNA array. An outline of the steps: as §1
The variants in data set [3] derive from B1. The experiment in a line: self-cleavage kobs at 2500 uM GlcN6P; higher = faster cleavage; RNA array. Summed up: as §1
In data set [4] the parent is B1. The experiment in a line: self-cleavage kobs at 10000 uM GlcN6P; higher = faster cleavage; RNA array. Summed up: as §1

± gives the standard error. Variants at the floor of the assay were thinned out.

From the supplement of paper PMC7125110 come the findings set out here.

As for G43C U49G, in the data set with glucosamine-6-phosphate [1], the “self-cleavage kobs at 160 uM GlcN6P” value is below 1e-05 s⁻¹. In addition, the “self-cleavage kobs at 640 uM GlcN6P” value with glucosamine-6-phosphate [2] was below 1e-05 s⁻¹. Further, the “self-cleavage kobs at 2500 uM GlcN6P” value in the data set with glucosamine-6-phosphate [3] is below 1e-05 s⁻¹. In the data set with glucosamine-6-phosphate [4], the “self-cleavage kobs at 10000 uM GlcN6P” value was below 1e-05 s⁻¹.

With C50G G66C, in the data set with glucosamine-6-phosphate [1], the “self-cleavage kobs at 160 uM GlcN6P” value worked out at 0.000112 ± 3.9e-05 s⁻¹.

G43U G62U C67U: in the data set with glucosamine-6-phosphate [1], the “self-cleavage kobs at 160 uM GlcN6P” value was below 1e-05 s⁻¹. Moreover, in the data set with glucosamine-6-phosphate [2], the “self-cleavage kobs at 640 uM GlcN6P” value was below 1e-05 s⁻¹.

Regarding G7A G41A C70G, the “self-cleavage kobs at 160 uM GlcN6P” value in the data set with glucosamine-6-phosphate [1] was below 1e-05 s⁻¹.

As for A14U U30C C70G, the “self-cleavage kobs at 640 uM GlcN6P” value in the data set with glucosamine-6-phosphate [2] was found to be 9.88e-05 ± 3e-05 s⁻¹. The “self-cleavage kobs at 2500 uM GlcN6P” value with glucosamine-6-phosphate [3] stood at 8.37e-05 ± 2.2e-05 s⁻¹.

Consider A42C A64U, for which the “self-cleavage kobs at 160 uM GlcN6P” value with glucosamine-6-phosphate [1] is below 1e-05 s⁻¹. Besides, the “self-cleavage kobs at 640 uM GlcN6P” value with glucosamine-6-phosphate [2] was below 1e-05 s⁻¹. The “self-cleavage kobs at 2500 uM GlcN6P” value with glucosamine-6-phosphate [3] was below 1e-05 s⁻¹. In addition, in the data set with glucosamine-6-phosphate [4], the “self-cleavage kobs at 10000 uM GlcN6P” value was below 1e-05 s⁻¹.

On to A39G U49A G60U, for which the “self-cleavage kobs at 640 uM GlcN6P” value with glucosamine-6-phosphate [2] is below 1e-05 s⁻¹. Further, the “self-cleavage kobs at 2500 uM GlcN6P” value in the data set with glucosamine-6-phosphate [3] was below 1e-05 s⁻¹.

With C16A U30G G35A C50A, the “self-cleavage kobs at 640 uM GlcN6P” value with glucosamine-6-phosphate [2] is below 1e-05 s⁻¹. Besides, the “self-cleavage kobs at 10000 uM GlcN6P” value with glucosamine-6-phosphate [4] is below 1e-05 s⁻¹.

Take C10A A14C G37C G44U C61U: the “self-cleavage kobs at 160 uM GlcN6P” value in the data set with glucosamine-6-phosphate [1] is below 1e-05 s⁻¹.

In the case of G38U U46A G59A C70A, the “self-cleavage kobs at 640 uM GlcN6P” value with glucosamine-6-phosphate [2] was below 1e-05 s⁻¹. Moreover, the “self-cleavage kobs at 2500 uM GlcN6P” value with glucosamine-6-phosphate [3] was below 1e-05 s⁻¹.

As to G21U U54C U69C, the “self-cleavage kobs at 640 uM GlcN6P” value with glucosamine-6-phosphate [2] is 0.00201 ± 0.00057 s⁻¹. The “self-cleavage kobs at 2500 uM GlcN6P” value in the data set with glucosamine-6-phosphate [3] turned out to be 0.000416 ± 0.00014 s⁻¹.

For the variant A6U G7A G59A, in the data set with glucosamine-6-phosphate [2], the “self-cleavage kobs at 640 uM GlcN6P” value is below 1e-05 s⁻¹.

Consider G13A G51U, for which the “self-cleavage kobs at 640 uM GlcN6P” value with glucosamine-6-phosphate [2] is below 1e-05 s⁻¹. Further, the “self-cleavage kobs at 2500 uM GlcN6P” value with glucosamine-6-phosphate [3] was below 1e-05 s⁻¹. Also, the “self-cleavage kobs at 10000 uM GlcN6P” value with glucosamine-6-phosphate [4] is below 1e-05 s⁻¹.

On to A15U U31C G41U C70U, for which the “self-cleavage kobs at 640 uM GlcN6P” value in the data set with glucosamine-6-phosphate [2] is 3.6e-05 ± 1.4e-05 s⁻¹. In addition, in the data set with glucosamine-6-phosphate [4], the “self-cleavage kobs at 10000 uM GlcN6P” value came out at 6.84e-05 ± 1.3e-05 s⁻¹.

In the case of G29C U69G, in the data set with glucosamine-6-phosphate [1], the “self-cleavage kobs at 160 uM GlcN6P” value turned out to be 3.65e-05 ± 9.9e-06 s⁻¹. In addition, in the data set with glucosamine-6-phosphate [2], the “self-cleavage kobs at 640 uM GlcN6P” value came out at 9.83e-05 ± 1.7e-05 s⁻¹. Moreover, in the data set with glucosamine-6-phosphate [3], the “self-cleavage kobs at 2500 uM GlcN6P” value was 4.13e-05 ± 1.1e-05 s⁻¹.

Regarding G7U G38U G40U, in the data set with glucosamine-6-phosphate [2], the “self-cleavage kobs at 640 uM GlcN6P” value is below 1e-05 s⁻¹.

A39C U69A: in the data set with glucosamine-6-phosphate [1], the “self-cleavage kobs at 160 uM GlcN6P” value was below 1e-05 s⁻¹. Also, the “self-cleavage kobs at 640 uM GlcN6P” value with glucosamine-6-phosphate [2] was below 1e-05 s⁻¹.

In the case of G13C A15U C61U, the “self-cleavage kobs at 640 uM GlcN6P” value in the data set with glucosamine-6-phosphate [2] was below 1e-05 s⁻¹.

Turning to C50A G60C C68U, the “self-cleavage kobs at 640 uM GlcN6P” value in the data set with glucosamine-6-phosphate [2] is 4.56e-05 ± 2.1e-05 s⁻¹.

In the case of A6C A53U G63A, the “self-cleavage kobs at 160 uM GlcN6P” value with glucosamine-6-phosphate [1] was below 1e-05 s⁻¹. Moreover, in the data set with glucosamine-6-phosphate [2], the “self-cleavage kobs at 640 uM GlcN6P” value was below 1e-05 s⁻¹. The “self-cleavage kobs at 2500 uM GlcN6P” value with glucosamine-6-phosphate [3] is below 1e-05 s⁻¹.

Consider C16G A39C U45C A48C, for which, in the data set with glucosamine-6-phosphate [1], the “self-cleavage kobs at 160 uM GlcN6P” value is below 1e-05 s⁻¹. In addition, in the data set with glucosamine-6-phosphate [2], the “self-cleavage kobs at 640 uM GlcN6P” value was below 1e-05 s⁻¹.

Consider G7U U30C U45A C71G, for which, in the data set with glucosamine-6-phosphate [2], the “self-cleavage kobs at 640 uM GlcN6P” value was below 1e-05 s⁻¹.

For the variant G7A A33C G66C, the “self-cleavage kobs at 640 uM GlcN6P” value in the data set with glucosamine-6-phosphate [2] is below 1e-05 s⁻¹.

In the case of C11U A15G C68U, the “self-cleavage kobs at 160 uM GlcN6P” value with glucosamine-6-phosphate [1] stood at 4.79e-05 ± 2.4e-05 s⁻¹. Besides, the “self-cleavage kobs at 640 uM GlcN6P” value with glucosamine-6-phosphate [2] was 9.88e-05 ± 2.1e-05 s⁻¹. For the same variant, the “self-cleavage kobs at 2500 uM GlcN6P” value with glucosamine-6-phosphate [3] was 0.000318 ± 8.7e-05 s⁻¹.

For A42G U54A C67A, in the data set with glucosamine-6-phosphate [1], the “self-cleavage kobs at 160 uM GlcN6P” value is 0.000942 ± 0.00031 s⁻¹. Moreover, the “self-cleavage kobs at 640 uM GlcN6P” value with glucosamine-6-phosphate [2] turned out to be 0.0023 ± 0.001 s⁻¹. In addition, the “self-cleavage kobs at 2500 uM GlcN6P” value in the data set with glucosamine-6-phosphate [3] was determined as 0.00449 ± 0.0011 s⁻¹.

Regarding G13C U45G U56A G63A U65C, in the data set with glucosamine-6-phosphate [1], the “self-cleavage kobs at 160 uM GlcN6P” value is below 1e-05 s⁻¹. Further, the “self-cleavage kobs at 640 uM GlcN6P” value with glucosamine-6-phosphate [2] is below 1e-05 s⁻¹. For the same variant, the “self-cleavage kobs at 2500 uM GlcN6P” value in the data set with glucosamine-6-phosphate [3] was below 1e-05 s⁻¹.

Consider G44C U47G, for which the “self-cleavage kobs at 640 uM GlcN6P” value with glucosamine-6-phosphate [2] is below 1e-05 s⁻¹.

With C11G A15C U30G A52U, the “self-cleavage kobs at 640 uM GlcN6P” value in the data set with glucosamine-6-phosphate [2] was below 1e-05 s⁻¹.

For C16A A33G, the “self-cleavage kobs at 160 uM GlcN6P” value with glucosamine-6-phosphate [1] was below 1e-05 s⁻¹. Moreover, the “self-cleavage kobs at 10000 uM GlcN6P” value in the data set with glucosamine-6-phosphate [4] is below 1e-05 s⁻¹.
